# Laboratory results published in patent US20080050387A1 (published 2008).
# T1: testicular receptor 4 (TR4) (Homo sapiens (Human), UniProt P49116 1-596, limits assumed)
# T1 construct: hSos fusion (pSos-TR4) in yeast; also called pSos-TR4
# T1 sequence: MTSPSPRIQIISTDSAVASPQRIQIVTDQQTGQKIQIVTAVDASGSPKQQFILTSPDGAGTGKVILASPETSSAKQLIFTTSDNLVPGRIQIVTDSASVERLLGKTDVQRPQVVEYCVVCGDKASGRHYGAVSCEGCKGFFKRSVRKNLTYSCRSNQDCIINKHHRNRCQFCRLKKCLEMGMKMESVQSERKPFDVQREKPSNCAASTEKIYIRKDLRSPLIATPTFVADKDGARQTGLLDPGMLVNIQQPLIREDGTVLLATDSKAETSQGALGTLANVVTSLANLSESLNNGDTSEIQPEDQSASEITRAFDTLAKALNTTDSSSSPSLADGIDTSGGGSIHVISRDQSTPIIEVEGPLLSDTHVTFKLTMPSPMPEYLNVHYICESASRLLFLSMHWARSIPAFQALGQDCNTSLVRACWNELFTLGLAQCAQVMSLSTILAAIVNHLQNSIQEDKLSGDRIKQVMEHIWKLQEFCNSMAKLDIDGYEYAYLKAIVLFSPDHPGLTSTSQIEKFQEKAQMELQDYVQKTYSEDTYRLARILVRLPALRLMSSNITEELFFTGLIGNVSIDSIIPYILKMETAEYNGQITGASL
# T2: ARA70 (UniProt Q13772 1-614, limits assumed)
# T2 construct: also called pSos-ARA70; pSos-APA70
# T2 sequence (looked up): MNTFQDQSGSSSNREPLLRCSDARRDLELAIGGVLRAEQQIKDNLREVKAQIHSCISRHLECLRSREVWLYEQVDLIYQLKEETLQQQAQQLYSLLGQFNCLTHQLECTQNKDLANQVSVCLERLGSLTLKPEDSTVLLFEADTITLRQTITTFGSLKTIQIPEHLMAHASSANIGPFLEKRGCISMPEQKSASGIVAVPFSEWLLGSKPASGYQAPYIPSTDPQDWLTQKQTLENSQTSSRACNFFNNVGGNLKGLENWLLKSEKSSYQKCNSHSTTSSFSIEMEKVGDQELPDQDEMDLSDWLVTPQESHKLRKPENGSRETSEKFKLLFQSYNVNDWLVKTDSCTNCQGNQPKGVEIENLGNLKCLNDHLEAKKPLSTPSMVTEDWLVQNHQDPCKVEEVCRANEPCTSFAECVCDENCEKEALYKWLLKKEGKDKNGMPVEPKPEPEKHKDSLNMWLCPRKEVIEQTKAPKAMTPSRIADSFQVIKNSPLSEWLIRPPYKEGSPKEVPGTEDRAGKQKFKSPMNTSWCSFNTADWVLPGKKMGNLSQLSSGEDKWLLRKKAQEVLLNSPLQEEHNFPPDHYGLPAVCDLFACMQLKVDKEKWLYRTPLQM
# B1: ARA67 clone of the CytoTrap screen, amino acids 20-585 of PAT1 (pMyr-ARA67) (other)
# chain: AVVDNYIRSRRDIRSLPENIQFDVYYKLYQQGRLCQLGSEFCELEVFAKVLRALDKRHLLHHCFQALMDHGVKVASVLAYSFSRRCSYIAESDAAVKEKAIQVGFVLGGFLSDAGWYSDAEKVFLSCLQLCTLHDEMLHWFRAVECCVRLLHVRNGNCKYHLGEETFKLAQTYMDKLSKHGQQANKAALYGELCALLFAKSHYDEAYKWCIEAMKEITAGLPVKVVVDVLRQASKACVVKREFKKAEQLIKHAVYLARDHFGSKHPKYSDTLLDYGFYLLNVDNICQSVAIYQAALDIRQSVFGGKNIHVATAHEDLAYSSYVHQYSSGKFDNALFHAERAIGIITHILPEDHLLLASSKRVKALILEEIAIDCHNKETEQRLLQEAHDLHLSSLQLAKKAFGEFNVQTAKHYGNLGRLYQSMRKFKEAEEMHIKAIQIKEQLLGQEDYEVALSVGHLASLYNYDMNQYENAEKLYLRSIAIGKKLFGEGYSGLEYDYRGLIKLYNSIGNYEKVFEYHNVLSNWNRLRDRQYSVTDALEDVSTSPQSTEEVVQSFLISQNVEGPSC
# notes: The clone matched the DNA encoding aa 20-585 of PAT1 at 99.6% identity; also called pMyr-ARA67/PAT1
# Legend:
# [1] = target: T1, testicular receptor 4 (TR4); assay: CytoTrap Sos yeast two-hybrid, growth of cdc25H on SD/Gal(-LU) at 37° C
# Procedure: (§1) The bait and library constructs were co-transformed into yeast strain cdc25H. […] Only the clones that grow out on SD/Gal (−LU) plates but not on SD/Glu (−LU) plates at 37° C. are interaction positive ones.
# ARA70 = target: T2, ARA70; assay: as above
# Procedure: as §1
binder,measurement,setting,value
B1,binding result,[1],no binding
same,binding result,ARA70,no binding
